The IC50 is the concentration at which inhibition is half-maximal. Low values mean greater potency in that assay, high ones weaker potency in that assay.

Experiment [1] deals with integrin α4β1 on CHO cells transfected with human α4 (human) (UniProt P13612). The experiment can be described thus: inhibition of cell adhesion: A2 (CHOα4+) cells to immobilized VCAM-1.
For experiment [2] the target is unchanged. The experiment can be described thus: inhibition of cell adhesion: α4B2 (CHO α4+/α5-) cells to immobilized VCAM-1.
For experiment [3], the target named is integrin α4β1 on Jurkat cells, P13612.
The target is the same in experiment [4]. The experiment in a line: inhibition of cell adhesion: Jurkat cells to immobilized VCAM-1.

B1: EC-3 protein, heterodimeric disintegrin from Echis carinatus suchoreki venom (protein)
chain 1: NSVHPCCDPVKCEPREGEHCISGPCCRNCYFLRAGTVCKRAVGDDVDDYCSGITPDCPRNRYKGKED
chain 2: NSVHPCCDPVKCEPREGEHCISGPCCRNCKFLNAGTICKRAMLDGLNDYCTGISTDCPRNRYKGKED
B1: the IC50 in experiment [1] and in experiment [2] was 30 nM throughout.

B2: Echistatin (peptide)
chain: ECESGPCCRNCKFLKEGTICKRARGDDMDDYCNGKTCDCPRNPHKGPAT
As to B2, the IC50 in experiment [1] and in experiment [2] was > 10000 nM throughout.

B3: cyclic peptide … (peptide)
peptide: CKRAMLDGLNDYC
modifications: not checked
For the molecule B3, the fold more active than MLDG in experiment [3] is 5 fold. This molecule displayed an IC50 in experiment [4] of 1 mM.

The record behind these values is US6818617.
